These results are taken from patent US20110118131A1 (published 2011).

This experiment deals with T1, IL-1β (UniProt P01584 117-269).
T1 construct: Antigen immobilised on the Biacore chip
The experiment can be described thus: Biacore, periplasmic extract. A general note: SPR reads the build-up and loss of mass on a sensor chip optically.

B1: XPA23 light chain A91D (Fab, V domains shown)
VH: EVQLLESGGGLVQPGGSLRLSCAASGFTFSKYFMFWVRQAPGKGLEWVSVISPSGGMTRYADSVKGRFTISRDNSKNTLYLQMNSLRAEDTAVYYCARVGYGGNSDYWGQGTLVTVSS
VL: DIQMTQSPSSVSASVGDRLTIICRASQDINRWLAWYQQTPGNAPKLLIHSATSLQSGVPSRFSGSGSGTDFTLTINSLQPEDFATYYCQQDDSFPLTFGGGTKVEIK
As for B1, the “fold difference in affinity vs original” value is 1.08 fold.

B2: XPA23 light chain D28I (Fab, V domains shown)
VH: EVQLLESGGGLVQPGGSLRLSCAASGFTFSKYFMFWVRQAPGKGLEWVSVISPSGGMTRYADSVKGRFTISRDNSKNTLYLQMNSLRAEDTAVYYCARVGYGGNSDYWGQGTLVTVSS
VL: DIQMTQSPSSVSASVGDRLTIICRASQIINRWLAWYQQTPGNAPKLLIHSATSLQSGVPSRFSGSGSGTDFTLTINSLQPEDFATYYCQQADSFPLTFGGGTKVEIK
Take B2: the binding result was “no binding”.

B3: XPA23 light chain A91Y (Fab, V domains shown)
VH: EVQLLESGGGLVQPGGSLRLSCAASGFTFSKYFMFWVRQAPGKGLEWVSVISPSGGMTRYADSVKGRFTISRDNSKNTLYLQMNSLRAEDTAVYYCARVGYGGNSDYWGQGTLVTVSS
VL: DIQMTQSPSSVSASVGDRLTIICRASQDINRWLAWYQQTPGNAPKLLIHSATSLQSGVPSRFSGSGSGTDFTLTINSLQPEDFATYYCQQYDSFPLTFGGGTKVEIK
Take B3: the binding result is given as “no binding”.

B4: XPA23 light chain A91W (Fab, V domains shown)
VH: EVQLLESGGGLVQPGGSLRLSCAASGFTFSKYFMFWVRQAPGKGLEWVSVISPSGGMTRYADSVKGRFTISRDNSKNTLYLQMNSLRAEDTAVYYCARVGYGGNSDYWGQGTLVTVSS
VL: DIQMTQSPSSVSASVGDRLTIICRASQDINRWLAWYQQTPGNAPKLLIHSATSLQSGVPSRFSGSGSGTDFTLTINSLQPEDFATYYCQQWDSFPLTFGGGTKVEIK
Regarding B4, the binding result was “no binding”.

B5: XPA23 light chain D28H (Fab, V domains shown)
VH: EVQLLESGGGLVQPGGSLRLSCAASGFTFSKYFMFWVRQAPGKGLEWVSVISPSGGMTRYADSVKGRFTISRDNSKNTLYLQMNSLRAEDTAVYYCARVGYGGNSDYWGQGTLVTVSS
VL: DIQMTQSPSSVSASVGDRLTIICRASQHINRWLAWYQQTPGNAPKLLIHSATSLQSGVPSRFSGSGSGTDFTLTINSLQPEDFATYYCQQADSFPLTFGGGTKVEIK
As for B5, the “fold difference in affinity vs original” value is 1.23 fold.

B6: XPA23 light chain D28L (Fab, V domains shown)
VH: EVQLLESGGGLVQPGGSLRLSCAASGFTFSKYFMFWVRQAPGKGLEWVSVISPSGGMTRYADSVKGRFTISRDNSKNTLYLQMNSLRAEDTAVYYCARVGYGGNSDYWGQGTLVTVSS
VL: DIQMTQSPSSVSASVGDRLTIICRASQLINRWLAWYQQTPGNAPKLLIHSATSLQSGVPSRFSGSGSGTDFTLTINSLQPEDFATYYCQQADSFPLTFGGGTKVEIK
For the molecule B6, the “fold difference in affinity vs original” value is 9.64 fold.

B7: XPA23 light chain D28R (Fab, V domains shown)
VH: EVQLLESGGGLVQPGGSLRLSCAASGFTFSKYFMFWVRQAPGKGLEWVSVISPSGGMTRYADSVKGRFTISRDNSKNTLYLQMNSLRAEDTAVYYCARVGYGGNSDYWGQGTLVTVSS
VL: DIQMTQSPSSVSASVGDRLTIICRASQRINRWLAWYQQTPGNAPKLLIHSATSLQSGVPSRFSGSGSGTDFTLTINSLQPEDFATYYCQQADSFPLTFGGGTKVEIK
Turning to B7, the “fold difference in affinity vs original” value is 0.94 fold.

B8: XPA23 light chain A91Q (Fab, V domains shown)
VH: EVQLLESGGGLVQPGGSLRLSCAASGFTFSKYFMFWVRQAPGKGLEWVSVISPSGGMTRYADSVKGRFTISRDNSKNTLYLQMNSLRAEDTAVYYCARVGYGGNSDYWGQGTLVTVSS
VL: DIQMTQSPSSVSASVGDRLTIICRASQDINRWLAWYQQTPGNAPKLLIHSATSLQSGVPSRFSGSGSGTDFTLTINSLQPEDFATYYCQQQDSFPLTFGGGTKVEIK
As to B8, the binding result is “no binding”.

B9: XPA23 light chain A91F (Fab, V domains shown)
VH: EVQLLESGGGLVQPGGSLRLSCAASGFTFSKYFMFWVRQAPGKGLEWVSVISPSGGMTRYADSVKGRFTISRDNSKNTLYLQMNSLRAEDTAVYYCARVGYGGNSDYWGQGTLVTVSS
VL: DIQMTQSPSSVSASVGDRLTIICRASQDINRWLAWYQQTPGNAPKLLIHSATSLQSGVPSRFSGSGSGTDFTLTINSLQPEDFATYYCQQFDSFPLTFGGGTKVEIK
As for B9, the binding result is “no binding”.

B10: XPA23 light chain D28P (Fab, V domains shown)
VH: EVQLLESGGGLVQPGGSLRLSCAASGFTFSKYFMFWVRQAPGKGLEWVSVISPSGGMTRYADSVKGRFTISRDNSKNTLYLQMNSLRAEDTAVYYCARVGYGGNSDYWGQGTLVTVSS
VL: DIQMTQSPSSVSASVGDRLTIICRASQPINRWLAWYQQTPGNAPKLLIHSATSLQSGVPSRFSGSGSGTDFTLTINSLQPEDFATYYCQQADSFPLTFGGGTKVEIK
Consider B10, for which the “fold difference in affinity vs original” value is 1.17 fold.

B11: XPA23 light chain D28G (Fab, V domains shown)
VH: EVQLLESGGGLVQPGGSLRLSCAASGFTFSKYFMFWVRQAPGKGLEWVSVISPSGGMTRYADSVKGRFTISRDNSKNTLYLQMNSLRAEDTAVYYCARVGYGGNSDYWGQGTLVTVSS
VL: DIQMTQSPSSVSASVGDRLTIICRASQGINRWLAWYQQTPGNAPKLLIHSATSLQSGVPSRFSGSGSGTDFTLTINSLQPEDFATYYCQQADSFPLTFGGGTKVEIK
Take B11: the “fold difference in affinity vs original” value was 1.21 fold.

B12: XPA23 light chain D28F (Fab, V domains shown)
VH: EVQLLESGGGLVQPGGSLRLSCAASGFTFSKYFMFWVRQAPGKGLEWVSVISPSGGMTRYADSVKGRFTISRDNSKNTLYLQMNSLRAEDTAVYYCARVGYGGNSDYWGQGTLVTVSS
VL: DIQMTQSPSSVSASVGDRLTIICRASQFINRWLAWYQQTPGNAPKLLIHSATSLQSGVPSRFSGSGSGTDFTLTINSLQPEDFATYYCQQADSFPLTFGGGTKVEIK
Consider B12, for which the “fold difference in affinity vs original” value turned out to be 1.43 fold.

B13: XPA23 light chain D28A (Fab, V domains shown)
VH: EVQLLESGGGLVQPGGSLRLSCAASGFTFSKYFMFWVRQAPGKGLEWVSVISPSGGMTRYADSVKGRFTISRDNSKNTLYLQMNSLRAEDTAVYYCARVGYGGNSDYWGQGTLVTVSS
VL: DIQMTQSPSSVSASVGDRLTIICRASQAINRWLAWYQQTPGNAPKLLIHSATSLQSGVPSRFSGSGSGTDFTLTINSLQPEDFATYYCQQADSFPLTFGGGTKVEIK
Take B13: the “fold difference in affinity vs original” value came out at 0.88 fold.

B14: XPA23 light chain D28E (Fab, V domains shown)
VH: EVQLLESGGGLVQPGGSLRLSCAASGFTFSKYFMFWVRQAPGKGLEWVSVISPSGGMTRYADSVKGRFTISRDNSKNTLYLQMNSLRAEDTAVYYCARVGYGGNSDYWGQGTLVTVSS
VL: DIQMTQSPSSVSASVGDRLTIICRASQEINRWLAWYQQTPGNAPKLLIHSATSLQSGVPSRFSGSGSGTDFTLTINSLQPEDFATYYCQQADSFPLTFGGGTKVEIK
As for B14, the “fold difference in affinity vs original” value turned out to be 0.74 fold.

B15: XPA23 light chain A91E (Fab, V domains shown)
VH: EVQLLESGGGLVQPGGSLRLSCAASGFTFSKYFMFWVRQAPGKGLEWVSVISPSGGMTRYADSVKGRFTISRDNSKNTLYLQMNSLRAEDTAVYYCARVGYGGNSDYWGQGTLVTVSS
VL: DIQMTQSPSSVSASVGDRLTIICRASQDINRWLAWYQQTPGNAPKLLIHSATSLQSGVPSRFSGSGSGTDFTLTINSLQPEDFATYYCQQEDSFPLTFGGGTKVEIK
In the case of B15, the “fold difference in affinity vs original” value was found to be 0.1 fold.

B16: XPA23 light chain D28K (Fab, V domains shown)
VH: EVQLLESGGGLVQPGGSLRLSCAASGFTFSKYFMFWVRQAPGKGLEWVSVISPSGGMTRYADSVKGRFTISRDNSKNTLYLQMNSLRAEDTAVYYCARVGYGGNSDYWGQGTLVTVSS
VL: DIQMTQSPSSVSASVGDRLTIICRASQKINRWLAWYQQTPGNAPKLLIHSATSLQSGVPSRFSGSGSGTDFTLTINSLQPEDFATYYCQQADSFPLTFGGGTKVEIK
B16: the “fold difference in affinity vs original” value is 0.82 fold.

B17: XPA23 light chain A91S (Fab, V domains shown)
VH: EVQLLESGGGLVQPGGSLRLSCAASGFTFSKYFMFWVRQAPGKGLEWVSVISPSGGMTRYADSVKGRFTISRDNSKNTLYLQMNSLRAEDTAVYYCARVGYGGNSDYWGQGTLVTVSS
VL: DIQMTQSPSSVSASVGDRLTIICRASQDINRWLAWYQQTPGNAPKLLIHSATSLQSGVPSRFSGSGSGTDFTLTINSLQPEDFATYYCQQSDSFPLTFGGGTKVEIK
With B17, the “fold difference in affinity vs original” value is 0.9 fold.

B18: XPA23 light chain A91H (Fab, V domains shown)
VH: EVQLLESGGGLVQPGGSLRLSCAASGFTFSKYFMFWVRQAPGKGLEWVSVISPSGGMTRYADSVKGRFTISRDNSKNTLYLQMNSLRAEDTAVYYCARVGYGGNSDYWGQGTLVTVSS
VL: DIQMTQSPSSVSASVGDRLTIICRASQDINRWLAWYQQTPGNAPKLLIHSATSLQSGVPSRFSGSGSGTDFTLTINSLQPEDFATYYCQQHDSFPLTFGGGTKVEIK
In the case of B18, the “fold difference in affinity vs original” value came to 1.12 fold.

B19: XPA23 light chain D28N (Fab, V domains shown)
VH: EVQLLESGGGLVQPGGSLRLSCAASGFTFSKYFMFWVRQAPGKGLEWVSVISPSGGMTRYADSVKGRFTISRDNSKNTLYLQMNSLRAEDTAVYYCARVGYGGNSDYWGQGTLVTVSS
VL: DIQMTQSPSSVSASVGDRLTIICRASQNINRWLAWYQQTPGNAPKLLIHSATSLQSGVPSRFSGSGSGTDFTLTINSLQPEDFATYYCQQADSFPLTFGGGTKVEIK
Take B19: the “fold difference in affinity vs original” value worked out at 1 fold.

B20: XPA23 light chain A91N (Fab, V domains shown)
VH: EVQLLESGGGLVQPGGSLRLSCAASGFTFSKYFMFWVRQAPGKGLEWVSVISPSGGMTRYADSVKGRFTISRDNSKNTLYLQMNSLRAEDTAVYYCARVGYGGNSDYWGQGTLVTVSS
VL: DIQMTQSPSSVSASVGDRLTIICRASQDINRWLAWYQQTPGNAPKLLIHSATSLQSGVPSRFSGSGSGTDFTLTINSLQPEDFATYYCQQNDSFPLTFGGGTKVEIK
As to B20, the “fold difference in affinity vs original” value is 0.1 fold.

B21: XPA23 light chain A91R (Fab, V domains shown)
VH: EVQLLESGGGLVQPGGSLRLSCAASGFTFSKYFMFWVRQAPGKGLEWVSVISPSGGMTRYADSVKGRFTISRDNSKNTLYLQMNSLRAEDTAVYYCARVGYGGNSDYWGQGTLVTVSS
VL: DIQMTQSPSSVSASVGDRLTIICRASQDINRWLAWYQQTPGNAPKLLIHSATSLQSGVPSRFSGSGSGTDFTLTINSLQPEDFATYYCQQRDSFPLTFGGGTKVEIK
In the case of B21, the binding result was “no binding”.
